Measured values: publication PMC2797447 (Blood cells, molecules & diseases, 2009)

Target: the molecule itself
Test: cross-linking

B1: mouse Kcc1 K-Cl cotransporter (natural protein, UniProt Q9JIS8 1-1085, looked up)
chain: MPHFTVVPVDGPRRGDYDNLEGLSWVDYGERAEREDSDGQGNHRENSPFLCPLDASRGNDYYDRNLALFEEELDIRPKVSSLLGKLVSYTNLTQGAKEHEEAESGEGGRRRAAKAPSMGTLMGVYLPCLQNIFGVILFLRLTWMVGTAGVLQALLIVLICCCCTLLTAISMSAIATNGVVPAGGSYFMISRSLGPEFGGAVGLCFYLGTTFAAAMYILGAIEILLTYIAPPAAIFYPSGTHDMSSATLNNMRVYGTIFLTLMTLVVFVGVKYVNKFASLFLACVIISILSIYAGGIKSIFDPPVFPVCMLGNRTLSRDQFDICAKTVVVDNETVATRLWTFFCHSPNLTADSCDPYFLLNNVTEIPGIPGAAAGVLQENLWSAYLEKGEVVEKHGLPSTDTLGLKESLSLYVVADIATSFTVLVGIFFPSVTGIMAGSNRSGDLRDAQKSIPVGTILAIVTTSLVYFSSVILFGACIEGVVLRDKYGDGVSRNLVVGTLAWPSPWVIVVGSFFSTCGAGLQSLTGAPRLLQAIAKDNIIPFLRVFGHGKANGEPTWALLLTALIAELGILIASLDMVAPILSMFFLMCYLFVNLACAVQTLLRTPNWRPRFKYYHWTLSFLGMSLCLALMFVSSWYYALVAMLIAGMIYKYIEYQGAEKEWGDGIRGLSLSAARYALLRLEEGPPHTKNWRPQLLVLLKLDEDLHVKYPRLLTFASQLKAGKGLTIVGSVIQGSFLESYGEAQAAEQTIKNMMDIEKVKGFCQVVVASKVREGLAHLIQSCGLGGMRHNSVVLGWPYGWRQSEDPRAWKTFIDTVRCTTAAHLALLVPKNIAFYPSNHERYLDGHIDVWWIVHDGGMLMLLPFLLRQHKVWKKCRMRIFTVAQMDDNSIQMKKDLAIFLYHLRLEAEVEVVEMHNSDISAYTYERTLMMEQRSQMLRQMRLTKTERDREAQLVKDRHSALRLESLYSDEEEESVAGADKIQMTWTRDKYMAEPWDPSHAPDNFRELVHIKPDQSNVRRMHTAVKLNEVIVTRSHDARLVLLNMPGPPKNSEGDENYMEFLEVLTEGLERVLLVRGGGREVITIYS
  stoichiometry N: ~2
